Test results: the supplement of paper PMC12042874
± gives the uncertainty stated by the source.

Test: amyloid nucleation score (Sup35N fusion, yeast selection) (log enrichment); library NNK3; higher = more nucleation; inactive = no reads after selection
Summary of the method: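 Peptides of 20 random codons fused to Sup35N were expressed in psi-negative yeast, induced 24 hours with 100 μM copper sulfate, then grown 7 days at 30°C on medium lacking adenine and uracil. Input and output plasmid inserts were Illumina-sequenced. Nucleation score is the DiMSum log enrichment of output over input reads, centred on the mode score of non-aggregating sequences, excluding sequences with under 100 input reads. Random libraries had three technical output replicates.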

Substance | amyloid nucleation score
GGHLLGHIASVFMEFCALQC | inactive
DRQRWSRLCAGQSLYNCGKC | inactive
RSVNGVTLGTARYHAVERVL | inactive
NWQYLNG | inactive
FARFSIAFMH | 0.231 ± 0.9
KNLGLA | inactive
RDWKEDLFFF | inactive
RLIWVDLALMFMFMYFLVRQ | inactive
IYNRNGRF | inactive
RYKAVRRKYPGCRLGWMRPL | inactive
SLTMNLFVRTASCGLASRVR | -0.541 ± 1.7
VVYYWSVRITAVQHYWHLYT | inactive
VRVSRNGSVLY | inactive
LLISDMGFNIVVLMTVSCFY | 0.049 ± 0.29
FEDCSTLH | -0.482 ± 0.84
SPRSFIILVGNGYISCSSVE | 2.56 ± 0.073
SRVFARFDEEDRDNSRKRTV | inactive
SGGYDQSQALNRLVGWRVYC | -0.301 ± 1
SAVSTRW | inactive
WINTRLGCPDTNRGSTRVTL | inactive
GLLMFLNVCLVVTVSARTYS | inactive
SIFFIKTYESFDSSLFKSSS | inactive
TYVKYKRILQQGIYAVVMNV | inactive

Substance | amyloid nucleation score
IRLFAVTAYSIVTYVRFMIG | inactive
VSVNMFLYISVNYKELGCEY | 1.93 ± 0.056
VLRIFISWCSVQLSKRLWWT | inactive
SIPLGFGMLSDDKSI | inactive
WNFYGWRVLSHRRTGSVHRL | -0.847 ± 1.4
CFYGDFSSILSRKVYDYYIR | inactive
NSTDRMTASS | inactive
GDCFWSPDKNWIALEVFQTF | inactive
DGKFRSNWSYGVLWMLVFLY | inactive
KPMVYFQLRRLSKKVIYCAM | inactive
TEQNVSGCEGEGSYGYTRYA | inactive
FNARLFISLLIKDRK | inactive
FVLESFCRPLHSWVAGMGV | inactive
FAVTLNSWRARFRFMDRNDM | 0.682 ± 0.26
VQFMMYVGTGIGAVGSGVNY | 1.53 ± 0.11
PSGVTSCLKEWDSRDHGHRH | inactive
NGGVLAGTMG | inactive
AIYAHYYRTWVFWYYMVPGC | inactive
SSKARSQSCVLRMMIPDRQW | inactive
SVLLISVEYVAYEFLSHSVR | 2.05 ± 0.097
FYMWFMRTGLTKYPNGAIKV | inactive
RHRIRWSMRRNWSACVQ | inactive
FCFSYSYAYFCHIYGCGSNR | -0.281 ± 0.36

Substance | amyloid nucleation score
VLLVHGKEWTEMLAHTLRCG | inactive
NVRTLNSLDDLGVSFSSACT | inactive
LYMNATLSYCGTYCMVTQMV | inactive
LNFCFHYCI | 1.54 ± 0.12
DNRSL | -0.501 ± 0.66
IFPNLACSFRFCTRPYRSSM | 0.571 ± 0.25
CNISSFNT | inactive
TPNARSNPSNRPVSSTRARS | inactive
TYENDLC | inactive
WGNISGSA | inactive
FSVSDSFP | inactive
SRPLHFVYVIWGCPDQSDRN | inactive
LLHPYARVDMRVQ | inactive
VGSQEANLAVGI | inactive
RYVRCNRMWIIDLDEHARGK | inactive
YIGVRGFLLYPFNRVFEVMM | inactive
NPMTHYHMIHRSQGNCLLRR | inactive
TWILSMWRSCIPNL | inactive
RRVGSWTYVSFSDGI | 0.239 ± 0.41
LTFLVRDCCTCSICNDGPSR | 3.08 ± 0.079
FHTWISGLPEVHWGVLEVRW | inactive
NNIIVVKTAS | inactive
TSAYGMSSWGFWS | inactive

Substance | amyloid nucleation score
LTHPCLMPFMLVVTRLYMAA | -1.03 ± 1.8
LLYSLWQSHLMLTGCNM | inactive
ETHLDTLPVVYHLWLLHVLM | inactive
IPVAIMLS | inactive
YGVYISIFILCWNGGNNDDC | inactive
SFVQEMGDPPYHKQSQQLRS | inactive
TFQRFQLGHIRFRQVFSWIC | -0.627 ± 1.4
YRGIKFTYKPGLLGQFHRED | inactive
VENLHNHYQYVFKNGMCDG | 0.263 ± 0.22
VGIRWYGFDTCRRKFGTWNI | inactive
GARLAVW | inactive
LMRLLLNYWSITAIILL | inactive
GVYMQSLLYRCFVFYNYKLD | inactive
ILEYAVVNHQVNLVIVSIGH | 1.65 ± 0.068
LIWIVVGLSCYSTRL | 1.09 ± 0.13
TCTLEFLNY | inactive
RSSSASR | inactive
NIMVVYPFFYGFKHNWLESI | inactive
RKWSNR | inactive
CQYPCVMLCQC | 0.504 ± 0.19
FTNFDNFSFYASWLCG | inactive
GGSCTDSVVIEGI | 0.252 ± 0.24
AFTGTDSKF | inactive

Substance | amyloid nucleation score
SLMNHLSGTKVMLGRLRYSN | inactive
LMLANVNAA | inactive
EKQKSLFCVLMVGLFYVNV | inactive
WIWSGMYSNWPNSAPVNIR | inactive
LRDFRKVSPAKVIDNRFQTD | 0.827 ± 0.17
CRRNTVFMNRVYNNGLFEEC | inactive
FSVANGHRVM | inactive
KGTLGCNSSSHVLIAVCNAM | inactive
WQIWDRVQTRKFHGEFTYMR | inactive
KISFWVRERFNYRCTIGIEC | inactive
HAEPIYFYIVRTLKDG | inactive
FYTIGWGWNQKCGIFRHMVR | inactive
YAFGGQLFAFVLRNENIFSG | 1.37 ± 0.085
VSATSQYQSICLSLNTKNRF | inactive
SCGEYWPLLSFMNCWAP | inactive
FSVQAIWFVMSLNRFLGKGR | inactive
VGGPNCIQAFS | inactive
LLTWMIG | 0.714 ± 0.29
VTWNHSSCSERKRVRMSGWS | 0.801 ± 0.14
ISFSWHF | 0.789 ± 0.17
RLWHLLFLHNRYHVVFNSIL | inactive
VENKMFDRGGFYVWMCGLSD | inactive
LTFVHNWFDPLCLHRNSAMN | inactive

Substance | amyloid nucleation score
RDSLFSV | inactive
LIGDNRTGEVALYRFGSRMG | inactive
CANAYWDVCCCYVFLMGLGG | -0.268 ± 1.1
SSKNINVILMIKR | 2.05 ± 0.066
ICYPLFFCNAEWRFEEPCVL | 2.57 ± 0.075
VVSSFMMLVYMNLLNFSNVE | inactive
DEIPCDVRGLMPTRVSTLNL | inactive
NSLPCLGYGMFM | inactive
HHKMVISVSSRNQSEKRSDW | inactive
FSNSRDSILWHRFGRICASY | 1.58 ± 0.12
DRTHDSSDSCGCCNNL | inactive
FHYGLSWLSSTKGSYVFYIG | inactive
TIFRSNDLRQYFWMA | 1.63 ± 0.071
LWYFRFNFTAYNYFLWYDTS | inactive
NGNFSVRFSVKS | inactive
KPCSLIRWPIKASMFSYVHS | inactive
GSVSDGTILKLFHVSDRGTW | inactive
IALGNVRISRYRVLWAYLSS | inactive
EKSICWSNFIAWITIWPKGR | inactive
GLTVCTSYLSISAYDMYANL | 1.29 ± 0.067
YMSLVRTGKNTQMVVYRLVL | inactive
LREKND | inactive
MPRSCSDYACAV | inactive

Substance | amyloid nucleation score
LLCVDSTKTMIAYD | inactive
PITMLE | inactive
YNFNV | inactive
FSLRNICSGLWILSVIAFPI | inactive
QYFPDIY | inactive
GHRHQFSHATVNDVKSRV | inactive
MSICFDPWTRPKCGVYCRCS | inactive
SLSEEYDTLPATWTAQVCKR | inactive
VDQPQ | inactive
TLNGCR | inactive
NAHCMVLMHRAKVWIFMINK | inactive
PRRSERYFCFF | 0.443 ± 0.23
DKRNSLGCGLNYGFKADDGW | inactive
LLKGFSCFLNR | inactive
GLTLRRWINAFHRHVGNKGQ | 0.592 ± 0.24
TYLLYCCVVVR | inactive
PRTCMATSGPSGGHKSLFGF | inactive
LFPLMKQYLARGFSQDIRSA | inactive
PSSLKYSKRVLSVSIHWERL | inactive
KYANILSFTPFNQQSI | inactive
TWFLTPLNTFIFLLVPLFGL | inactive
PMVKPSNLCYSSHCSMGTRG | inactive
